Experimental data from the supplement of paper PMC9112550, “Optimization of the antimicrobial peptide Bac7 by deep mutational scanning” (BMC Biology, 2022).

system: Escherichia coli TOP10; experiment: shrunken log2 fold change of peptide-encoding DNA abundance (4.5 h post-induction vs induction); higher = less antimicrobial activity (less host growth inhibition); conditions: time post-induction: 4.5 h; library: site-saturation at positions 5, 18, 19, 20
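Further: peptides expressed intracellularly from a pBAD plasmid library in pooled LB shake-flask culture, induced with 0.3% L-arabinose, DNA abundance read by NGS, three biological replicates, DESeq2 with apeglm shrinkage.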

Row | Sequence | shrunken log2 fold change
1 | RRIRDRPPRLPRPRPRPSNKPRP | -0.325
2 | RRIRDRPPRLPRPRPRPSNRPRP | -0.052
3 | RRIRDRPPRLPRPRPRPSPEPRP | 0.778
4 | RRIRDRPPRLPRPRPRPSPMPRP | 0.136
5 | RRIRDRPPRLPRPRPRPSPVPRP | 0.0438
6 | RRIRDRPPRLPRPRPRPSQTPRP | -0.244
7 | RRIRDRPPRLPRPRPRPSRHPRP | 0.0369
8 | RRIRDRPPRLPRPRPRPSRWPRP | 0.0623
9 | RRIRDRPPRLPRPRPRPSVPPRP | -0.329
10 | RRIRDRPPRLPRPRPRPSWLPRP | 0.339
11 | RRIRDRPPRLPRPRPRPSWNPRP | -0.365
12 | RRIRDRPPRLPRPRPRPSWVPRP | -0.211
13 | RRIRDRPPRLPRPRPRPSYFPRP | -0.255
14 | RRIRDRPPRLPRPRPRPSYIPRP | -0.267
15 | RRIRDRPPRLPRPRPRPSYQPRP | -0.494
16 | RRIRDRPPRLPRPRPRPTARPRP | 0.546
17 | RRIRDRPPRLPRPRPRPTAWPRP | 1.51
18 | RRIRDRPPRLPRPRPRPTCCPRP | 0.104
19 | RRIRDRPPRLPRPRPRPTCMPRP | -0.0434
20 | RRIRDRPPRLPRPRPRPTCTPRP | 0.53
21 | RRIRDRPPRLPRPRPRPTDAPRP | -0.036
22 | RRIRDRPPRLPRPRPRPTDNPRP | -0.5
23 | RRIRDRPPRLPRPRPRPTFPPRP | 0.0873
24 | RRIRDRPPRLPRPRPRPTGVPRP | -0.0117
25 | RRIRDRPPRLPRPRPRPTIVPRP | 0.0194

Row | Sequence | shrunken log2 fold change
26 | RRIRDRPPRLPRPRPRPTLGPRP | 1.08
27 | RRIRDRPPRLPRPRPRPTLKPRP | -0.0215
28 | RRIRDRPPRLPRPRPRPTLLPRP | 0.758
29 | RRIRDRPPRLPRPRPRPTMIPRP | -0.587
30 | RRIRDRPPRLPRPRPRPTMMPRP | 0.338
31 | RRIRDRPPRLPRPRPRPTNCPRP | -0.0515
32 | RRIRDRPPRLPRPRPRPTQYPRP | -0.191
33 | RRIRDRPPRLPRPRPRPTSIPRP | 0.099
34 | RRIRDRPPRLPRPRPRPTVDPRP | 0.195
35 | RRIRDRPPRLPRPRPRPTVLPRP | 0.306
36 | RRIRDRPPRLPRPRPRPTWAPRP | 0.168
37 | RRIRDRPPRLPRPRPRPTYCPRP | -0.27
38 | RRIRDRPPRLPRPRPRPVAIPRP | 0.711
39 | RRIRDRPPRLPRPRPRPVDCPRP | -0.0327
40 | RRIRDRPPRLPRPRPRPVDMPRP | 0.0154
41 | RRIRDRPPRLPRPRPRPVEVPRP | 0.43
42 | RRIRDRPPRLPRPRPRPVEYPRP | 0.0163
43 | RRIRDRPPRLPRPRPRPVFEPRP | 0.187
44 | RRIRDRPPRLPRPRPRPVGTPRP | -0.0472
45 | RRIRDRPPRLPRPRPRPVGVPRP | 0.189
46 | RRIRDRPPRLPRPRPRPVIHPRP | 0.0491
47 | RRIRDRPPRLPRPRPRPVIWPRP | 0.0861
48 | RRIRDRPPRLPRPRPRPVLAPRP | 0.805
49 | RRIRDRPPRLPRPRPRPVLQPRP | 0.0891
50 | RRIRDRPPRLPRPRPRPVLWPRP | 0.37

Row | Sequence | shrunken log2 fold change
51 | RRIRDRPPRLPRPRPRPVMGPRP | 0.0247
52 | RRIRDRPPRLPRPRPRPVMHPRP | -0.112
53 | RRIRDRPPRLPRPRPRPVNGPRP | -0.0115
54 | RRIRDRPPRLPRPRPRPVNSPRP | 0.0226
55 | RRIRDRPPRLPRPRPRPVQRPRP | 0.121
56 | RRIRDRPPRLPRPRPRPVRQPRP | 0.000541
57 | RRIRDRPPRLPRPRPRPVRTPRP | -0.176
58 | RRIRDRPPRLPRPRPRPVTGPRP | 0.148
59 | RRIRDRPPRLPRPRPRPVVKPRP | 0.0734
60 | RRIRDRPPRLPRPRPRPVWMPRP | 0.0445
61 | RRIRDRPPRLPRPRPRPWCGPRP | -0.00113
62 | RRIRDRPPRLPRPRPRPWDPPRP | 0.0959
63 | RRIRDRPPRLPRPRPRPWGEPRP | 0.0987
64 | RRIRDRPPRLPRPRPRPWHAPRP | -0.134
65 | RRIRDRPPRLPRPRPRPWIFPRP | 0.148
66 | RRIRDRPPRLPRPRPRPWKWPRP | 0.0155
67 | RRIRDRPPRLPRPRPRPWRNPRP | -0.0018
68 | RRIRDRPPRLPRPRPRPWRRPRP | 0.0906
69 | RRIRDRPPRLPRPRPRPWSLPRP | 0.0709
70 | RRIRDRPPRLPRPRPRPWSTPRP | -0.274
71 | RRIRDRPPRLPRPRPRPWTHPRP | -0.291
72 | RRIRDRPPRLPRPRPRPWVFPRP | 0.289
73 | RRIRDRPPRLPRPRPRPWVHPRP | -0.0818
74 | RRIRDRPPRLPRPRPRPWWYPRP | -0.738
75 | RRIRDRPPRLPRPRPRPWYHPRP | -0.0258
